Biological target: T1, SufR6-229-His6 (holo, [4Fe-4S]) (Mycobacterium tuberculosis H37Rv, UniProt O53151 30-253)
T1 sequence: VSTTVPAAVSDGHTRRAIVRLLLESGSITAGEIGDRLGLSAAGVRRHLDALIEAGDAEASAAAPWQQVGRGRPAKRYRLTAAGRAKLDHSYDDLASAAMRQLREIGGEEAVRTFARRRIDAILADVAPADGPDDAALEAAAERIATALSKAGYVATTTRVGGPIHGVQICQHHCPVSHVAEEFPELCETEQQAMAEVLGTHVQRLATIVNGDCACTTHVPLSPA
Assay: MST

B1: PsufR 50-bp (dsDNA)
DNA 1: CCGATCAACGGAATTTTGTCACACTGATGTTGTGAAAATCCCGGCGGTCT
DNA 2: AGACCGCCGGGATTTTCACAACATCAGTGTGACAAAATTCCGTTGATCGG
B1 was tested. Which Kd did it give?
The Kd was 0.235 ± 0.0458 µM.

Source: publication doi:10.64898/2025.12.26.696629
